Laboratory results reported in the supplement of paper PMC9112550, “Optimization of the antimicrobial peptide Bac7 by deep mutational scanning” (BMC Biology, 2022).
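Note: peptides expressed intracellularly from a pBAD plasmid library in pooled LB shake-flask culture, induced with 0.3% L-arabinose, DNA abundance read by NGS, three biological replicates, DESeq2 with apeglm shrinkage.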

Each sequence was assayed on Escherichia coli TOP10 (assay: shrunken log2 fold change of peptide-encoding DNA abundance (4.5 h post-induction vs induction); higher = less antimicrobial activity (less host growth inhibition)). Details: time post-induction: 4.5 h; library: site-saturation at positions 5, 18, 19, 20.
RRIRCRPPRLPRPRPRPQVTPRP was tested, and the “shrunken log2 fold change” value was -0.102. In the case of RRIRLRPPRLPRPRPRPNLCPRP, the “shrunken log2 fold change” value was 0.119. RRIRCRPPRLPRPRPRPTMQPRP was tested, and the “shrunken log2 fold change” value was -0.0203. RRIRIRPPRLPRPRPRPMQYPRP was tested, and the “shrunken log2 fold change” value was -0.016. In the case of RRIRNRPPRLPRPRPRPEAPPRP, the “shrunken log2 fold change” value was 3.17. In the case of RRIRRRPPRLPRPRPRPWVDPRP, the “shrunken log2 fold change” value was 0.0233. In the case of RRIRHRPPRLPRPRPRPIYVPRP, the “shrunken log2 fold change” value was -0.0627. With RRIRLRPPRLPRPRPRPFPEPRP the “shrunken log2 fold change” value was -0.0878. With RRIRLRPPRLPRPRPRPMFDPRP the “shrunken log2 fold change” value was -0.249. In the case of RRIRARPPRLPRPRPRPRQHPRP, the “shrunken log2 fold change” value was 0.278. For RRIRKRPPRLPRPRPRPDRYPRP, the “shrunken log2 fold change” value was -0.0261. For RRIRDRPPRLPRPRPRPTCRPRP, the “shrunken log2 fold change” value was 0.175. For RRIRGRPPRLPRPRPRPQIAPRP, the “shrunken log2 fold change” value was 1.94. In the case of RRIRQRPPRLPRPRPRPGEIPRP, the “shrunken log2 fold change” value was -0.366. In the case of RRIRNRPPRLPRPRPRPETKPRP, the “shrunken log2 fold change” value was 0.384. RRIRWRPPRLPRPRPRPMSFPRP was tested, and the “shrunken log2 fold change” value was 0.00806. RRIRFRPPRLPRPRPRPNYHPRP was tested, and the “shrunken log2 fold change” value was -0.758. With RRIRQRPPRLPRPRPRPPAHPRP the “shrunken log2 fold change” value was 0.0556. For RRIRTRPPRLPRPRPRPGKAPRP, the “shrunken log2 fold change” value was -0.0369. RRIRSRPPRLPRPRPRPKEYPRP was tested, and the “shrunken log2 fold change” value was 0.167. For RRIRLRPPRLPRPRPRPKKFPRP, the “shrunken log2 fold change” value was -0.322. For RRIRNRPPRLPRPRPRPGSIPRP, the “shrunken log2 fold change” value was -0.00285. With RRIRLRPPRLPRPRPRPQPRPRP the “shrunken log2 fold change” value was 0.67. RRIRFRPPRLPRPRPRPGEKPRP was tested, and the “shrunken log2 fold change” value was 0.084. For RRIRTRPPRLPRPRPRPCNDPRP, the “shrunken log2 fold change” value was -0.145. With RRIRLRPPRLPRPRPRPLMYPRP the “shrunken log2 fold change” value was -0.327. With RRIRYRPPRLPRPRPRPQGYPRP the “shrunken log2 fold change” value was -0.516. With RRIRDRPPRLPRPRPRPGVGPRP the “shrunken log2 fold change” value was 0.519. For RRIRLRPPRLPRPRPRPNLLPRP, the “shrunken log2 fold change” value was 0.153. In the case of RRIRWRPPRLPRPRPRPWCAPRP, the “shrunken log2 fold change” value was 0.0379. For RRIRNRPPRLPRPRPRPGVIPRP, the “shrunken log2 fold change” value was 0.208. RRIRHRPPRLPRPRPRPQDSPRP was tested, and the “shrunken log2 fold change” value was -0.00865. RRIRNRPPRLPRPRPRPPNMPRP was tested, and the “shrunken log2 fold change” value was -0.101. RRIRARPPRLPRPRPRPTDQPRP was tested, and the “shrunken log2 fold change” value was 0.918. With RRIRLRPPRLPRPRPRPLTDPRP the “shrunken log2 fold change” value was 0.133. RRIRGRPPRLPRPRPRPQIGPRP was tested, and the “shrunken log2 fold change” value was 0.345. In the case of RRIRLRPPRLPRPRPRPQRDPRP, the “shrunken log2 fold change” value was 0.231. For RRIRNRPPRLPRPRPRPNYTPRP, the “shrunken log2 fold change” value was -0.359. In the case of RRIRYRPPRLPRPRPRPKSAPRP, the “shrunken log2 fold change” value was 0.0745. For RRIRHRPPRLPRPRPRPTIPPRP, the “shrunken log2 fold change” value was -0.028. In the case of RRIRLRPPRLPRPRPRPAYGPRP, the “shrunken log2 fold change” value was -0.0437. With RRIRQRPPRLPRPRPRPNEEPRP the “shrunken log2 fold change” value was 2.87. In the case of RRIRPRPPRLPRPRPRPHYSPRP, the “shrunken log2 fold change” value was -0.167. In the case of RRIRERPPRLPRPRPRPEGNPRP, the “shrunken log2 fold change” value was 0.00934. RRIRMRPPRLPRPRPRPRVFPRP was tested, and the “shrunken log2 fold change” value was 0.947. RRIRERPPRLPRPRPRPCWSPRP was tested, and the “shrunken log2 fold change” value was 0.0767. RRIRIRPPRLPRPRPRPFDYPRP was tested, and the “shrunken log2 fold change” value was -0.182. In the case of RRIRMRPPRLPRPRPRPEVDPRP, the “shrunken log2 fold change” value was 0.784. For RRIRARPPRLPRPRPRPFLDPRP, the “shrunken log2 fold change” value was 0.116. With RRIRRRPPRLPRPRPRPRANPRP the “shrunken log2 fold change” value was 0.954. In the case of RRIRFRPPRLPRPRPRPMLNPRP, the “shrunken log2 fold change” value was -0.574. With RRIRGRPPRLPRPRPRPENSPRP the “shrunken log2 fold change” value was 0.678. For RRIRKRPPRLPRPRPRPSTNPRP, the “shrunken log2 fold change” value was 0.0826. In the case of RRIRNRPPRLPRPRPRPRMTPRP, the “shrunken log2 fold change” value was 0.259. For RRIRWRPPRLPRPRPRPWDFPRP, the “shrunken log2 fold change” value was -0.2. RRIRNRPPRLPRPRPRPFAFPRP was tested, and the “shrunken log2 fold change” value was -0.74. With RRIRTRPPRLPRPRPRPDVHPRP the “shrunken log2 fold change” value was 1.16. RRIRFRPPRLPRPRPRPGKWPRP was tested, and the “shrunken log2 fold change” value was -0.0163. In the case of RRIRKRPPRLPRPRPRPNMPPRP, the “shrunken log2 fold change” value was 0.145. With RRIRCRPPRLPRPRPRPAYRPRP the “shrunken log2 fold change” value was -0.194. In the case of RRIRPRPPRLPRPRPRPHCMPRP, the “shrunken log2 fold change” value was -0.195. RRIRPRPPRLPRPRPRPAWWPRP was tested, and the “shrunken log2 fold change” value was 0.259. In the case of RRIRSRPPRLPRPRPRPVWRPRP, the “shrunken log2 fold change” value was 0.33. With RRIRFRPPRLPRPRPRPKGMPRP the “shrunken log2 fold change” value was -0.243. RRIRPRPPRLPRPRPRPDFWPRP was tested, and the “shrunken log2 fold change” value was 0.527. In the case of RRIRIRPPRLPRPRPRPFEYPRP, the “shrunken log2 fold change” value was -0.709. For RRIRIRPPRLPRPRPRPRVVPRP, the “shrunken log2 fold change” value was 0.00259. For RRIRYRPPRLPRPRPRPRELPRP, the “shrunken log2 fold change” value was -0.0942. With RRIRKRPPRLPRPRPRPTRRPRP the “shrunken log2 fold change” value was 0.964. With RRIRPRPPRLPRPRPRPIGFPRP the “shrunken log2 fold change” value was 0.2. With RRIRDRPPRLPRPRPRPLFLPRP the “shrunken log2 fold change” value was -0.13. In the case of RRIRERPPRLPRPRPRPTWIPRP, the “shrunken log2 fold change” value was -0.268. RRIRARPPRLPRPRPRPASMPRP was tested, and the “shrunken log2 fold change” value was 0.301. With RRIRIRPPRLPRPRPRPTMLPRP the “shrunken log2 fold change” value was -0.487. With RRIRFRPPRLPRPRPRPDNTPRP the “shrunken log2 fold change” value was -0.491.
